Experimental data from patent US20240270846A1 (published 2024).
Residue numbers refer to the chain shown, from its start. Numbers in names are those of the source.

B1: GLS3000 S27aN one-arm antibody (H chain CE115HA000) (antibody, human IgG1, kappa, L234A L235A, N297A, name in Kabat numbering)
heavy: QVQLVESGGGVVQPGRSLRLSCAASGFTFSNAWMHWVRQAPGKGLEWVAQIKAKSNNYATYYAESVKGRFTISRDDSKNSLYLQMNSLKTEDTAVYYCRYVHYGAYYGVDAWGQGTTVTVSSASTKGPSVFPLAPSSKSTSGGTAALGCLVKDYFPEPVTVSWNSGALTSGVHTFPAVLQSSGLYSLSSVVTVPSSSLGTQTYICNVNHKPSNTKVDKKVEPKSCDKTHTCPPCPAPEAAGGPSVFLFPPKPKDTLMISRTPEVTCVVVDVSHEDPEVKFNWYVDGVEVHNAKTKPREEQYASTYRVVSVLTVLHQDWLNGKEYKCKVSNKALPAPIEKTISKAKGQPREPQVYTLPPSRCELTKNQVSLSCAVKGFYPSDIAVEWESNGQPENNYKTTPPVLDSDGSFFLVSKLTVDKSRWQQGNVFSCSVMHEALHNHYTQKSLSLSPDYKDDDDK
chain: EPKSSDKTHTCPPCPAPELLGGPSVFLFPPKPKDTLMISRTPEVTCVVVDVSHEDPEVKFNWYVDGVEVHNAKTKPREEQYNSTYRVVSVLTVLHQDWLNGKEYKCKVSNKALPAPIEKTISKAKGQPREPQVCTLPPSRDELTKNQVSLWCLVKGFYPSDIAVEWESNGQPENNYKTTPPVLDSDGSFFLYSKLTVDKSRWQQGNVFSCSVMHEALHNRYTQKSLSLSP
light: DIVMTQSPLSLPVTPGEPASISCRSSQNLVHSNRNTYLHWYQQKPGQAPRLLIYKVSNRFSGVPDRFSGSGSGTDFTLKISRVEAEDVGVYYCGQGTQVPYTFGQGTKLEIKRTVAAPSVFIFPPSDEQLKSGTASVVCLLNNFYPREAKVQWKVDNALQSGNSQESVTEQDSKDSTYSLSSTLTLSKADYEKHKVYACEVTHQGLSSPVTKSFNRGEC
notes: one-arm antibody
B2: GLS3000 S52A one-arm antibody (H chain CE115HA000) (antibody, human IgG1, kappa, L234A L235A, N297A, name in Kabat numbering)
heavy: B1 heavy
chain: B1 chain
light: B1 light with N28S, S57A
notes: one-arm antibody
B3: GLS3000 S27eR one-arm antibody (H chain CE115HA000) (antibody, human IgG1, kappa, L234A L235A, N297A, name in Kabat numbering)
heavy: B1 heavy
chain: B1 chain
light: B1 light with N28S, S32R
notes: one-arm antibody
B4: GLS3000 S27eH one-arm antibody (H chain CE115HA000) (antibody, human IgG1, kappa, L234A L235A, N297A, name in Kabat numbering)
heavy: B1 heavy
chain: B1 chain
light: B1 light with N28S, S32H
notes: one-arm antibody
B5: GLS3000 S27eD one-arm antibody (H chain CE115HA000) (antibody, human IgG1, kappa, L234A L235A, N297A, name in Kabat numbering)
heavy: B1 heavy
chain: B1 chain
light: B1 light with N28S, S32D
notes: one-arm antibody
B6: GLS3000 S27eQ one-arm antibody (H chain CE115HA000) (antibody, human IgG1, kappa, L234A L235A, N297A, name in Kabat numbering)
heavy: B1 heavy
chain: B1 chain
light: B1 light with N28S, S32Q
notes: one-arm antibody
B7: GLS3000 S27eV one-arm antibody (H chain CE115HA000) (antibody, human IgG1, kappa, L234A L235A, N297A, name in Kabat numbering)
heavy: B1 heavy
chain: B1 chain
light: B1 light with N28S, S32V
notes: one-arm antibody
B8: GLS3000 S27eN one-arm antibody (H chain CE115HA000) (antibody, human IgG1, kappa, L234A L235A, N297A, name in Kabat numbering)
heavy: B1 heavy
chain: B1 chain
light: B1 light with N28S, S32N
notes: one-arm antibody
B9: GLS3000 S27eF one-arm antibody (H chain CE115HA000) (antibody, human IgG1, kappa, L234A L235A, N297A, name in Kabat numbering)
heavy: B1 heavy
chain: B1 chain
light: B1 light with N28S, S32F
notes: one-arm antibody
B10: GLS3000 S27eW one-arm antibody (H chain CE115HA000) (antibody, human IgG1, kappa, L234A L235A, N297A, name in Kabat numbering)
heavy: B1 heavy
chain: B1 chain
light: B1 light with N28S, S32W
notes: one-arm antibody
B11: GLS3000 S27eP one-arm antibody (H chain CE115HA000) (antibody, human IgG1, kappa, L234A L235A, N297A, name in Kabat numbering)
heavy: B1 heavy
chain: B1 chain
light: B1 light with N28S, S32P
notes: one-arm antibody
B12: GLS3000 S27eI one-arm antibody (H chain CE115HA000) (antibody, human IgG1, kappa, L234A L235A, N297A, name in Kabat numbering)
heavy: B1 heavy
chain: B1 chain
light: B1 light with N28S, S32I
notes: one-arm antibody
B13: GLS3000 S27eA one-arm antibody (H chain CE115HA000) (antibody, human IgG1, kappa, L234A L235A, N297A, name in Kabat numbering)
heavy: B1 heavy
chain: B1 chain
light: B1 light with N28S, S32A
notes: one-arm antibody
B14: GLS3000 S27eG one-arm antibody (H chain CE115HA000) (antibody, human IgG1, kappa, L234A L235A, N297A, name in Kabat numbering)
heavy: B1 heavy
chain: B1 chain
light: B1 light with N28S, S32G
notes: one-arm antibody
B15: GLS3000 S27aY one-arm antibody (H chain CE115HA000) (antibody, human IgG1, kappa, L234A L235A, N297A, name in Kabat numbering)
heavy: B1 heavy
chain: B1 chain
light: B1 light with N28Y
notes: one-arm antibody
B16: GLS3000 S27eK one-arm antibody (H chain CE115HA000) (antibody, human IgG1, kappa, L234A L235A, N297A, name in Kabat numbering)
heavy: B1 heavy
chain: B1 chain
light: B1 light with N28S, S32K
notes: one-arm antibody
B17: GLS3000 S27eE one-arm antibody (H chain CE115HA000) (antibody, human IgG1, kappa, L234A L235A, N297A, name in Kabat numbering)
heavy: B1 heavy
chain: B1 chain
light: B1 light with N28S, S32E
notes: one-arm antibody
B18: GLS3000 S27eM one-arm antibody (H chain CE115HA000) (antibody, human IgG1, kappa, L234A L235A, N297A, name in Kabat numbering)
heavy: B1 heavy
chain: B1 chain
light: B1 light with N28S, S32M
notes: one-arm antibody
B19: GLS3000 S27eL one-arm antibody (H chain CE115HA000) (antibody, human IgG1, kappa, L234A L235A, N297A, name in Kabat numbering)
heavy: B1 heavy
chain: B1 chain
light: B1 light with N28S, S32L
notes: one-arm antibody
B20: GLS3000 S27aP one-arm antibody (H chain CE115HA000) (antibody, human IgG1, kappa, L234A L235A, N297A, name in Kabat numbering)
heavy: B1 heavy
chain: B1 chain
light: B1 light with N28P
notes: one-arm antibody
B21: GLS3000 S27eT one-arm antibody (H chain CE115HA000) (antibody, human IgG1, kappa, L234A L235A, N297A, name in Kabat numbering)
heavy: B1 heavy
chain: B1 chain
light: B1 light with N28S, S32T
notes: one-arm antibody
B22: GLS3000 S27eY one-arm antibody (H chain CE115HA000) (antibody, human IgG1, kappa, L234A L235A, N297A, name in Kabat numbering)
heavy: B1 heavy
chain: B1 chain
light: B1 light with N28S, S32Y
notes: one-arm antibody

Target: T1, CD3 epsilon homodimer protein (UniProt P07766 23-126)
T1 construct: also called CD3 (CD3 epsilon)
T1 sequence (P07766 23-126): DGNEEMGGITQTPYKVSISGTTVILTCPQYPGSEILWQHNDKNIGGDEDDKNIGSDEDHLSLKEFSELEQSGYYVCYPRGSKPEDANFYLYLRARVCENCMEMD
Test: SPR, CD3e homodimer on chip;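 also: surface plasmon resonance at 25 degrees C, antibodies flowed as analyte over CD3 epsilon homodimer amine-coupled to a CM4 chip, running buffer HBS-EP+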
Description: An appropriate amount of CD3 epsilon homodimer protein was immobilized onto Sensor chip CM4 (GE Healthcare Japan Corp.) by the amine coupling method. Then, the antibody having an appropriate concentration was injected thereto as an analyte and allowed to interact with the CD3 epsilon homodimer protein on the sensor chip. Then, the sensor chip was regenerated by the injection of 10 mmol/L glycine-HCl (pH 1.5). The assay was conducted at 25 degrees C., and HBS-EP+(GE Healthcare Japan Corp.) was used as a running buffer. […] Each parameter was calculated using Biacore T200 Evaluation Software (GE Healthcare Japan Corp.).
Specifically, when the amount of the GLS3000-containing antibody bound was defined as X and the amount of the L chain one-amino acid altered form bound was defined as Y, a value of Z (ratio of amounts bound)=Y/X was used.

Compared with B1, B2 is lower in “ratio of amounts bound (altered form / unaltered GLS3000 antibody)” value: 1.1 for the first, 0.93 for the second.

Compared with B3, B4 is lower in “ratio of amounts bound (altered form / unaltered GLS3000 antibody)” value: 1.58 for the first, 1.23 for the second.

Compared with B5, B6 is higher in “ratio of amounts bound (altered form / unaltered GLS3000 antibody)” value: 0.69 for the first, 1.1 for the second.

Going from B7 to B8, the “ratio of amounts bound (altered form / unaltered GLS3000 antibody)” value rises from 1.08 to 1.16.

Compared with B9, B10 is higher in “ratio of amounts bound (altered form / unaltered GLS3000 antibody)” value: 1.32 for the first, 1.55 for the second.

Compared with B11, B12 is lower in “ratio of amounts bound (altered form / unaltered GLS3000 antibody)” value: 1.26 for the first, 1.07 for the second.

Compared with B13, B14 is higher in “ratio of amounts bound (altered form / unaltered GLS3000 antibody)” value: 1.03 for the first, 1.04 for the second.

Compared with B15, B16 is higher in “ratio of amounts bound (altered form / unaltered GLS3000 antibody)” value: 1.1 for the first, 1.59 for the second.

First: B17
Second: B18
The “ratio of amounts bound (altered form / unaltered GLS3000 antibody)” value of the first is lower: 0.76 for the first, 1.23 for the second.

First: B19
Second: B20
The “ratio of amounts bound (altered form / unaltered GLS3000 antibody)” value of the first is higher: 1.17 for the first, 0.99 for the second.

Compared with B21, B22 is higher in “ratio of amounts bound (altered form / unaltered GLS3000 antibody)” value: 0.97 for the first, 1.2 for the second.
